The target of assay [1] is Kir1.1 channel (human) (UniProt P48048).
Assay [2] addresses Kir4.1 channel (human) (UniProt P78508).
Assay [3] addresses Kir1.1 channel (human) (UniProt P48048). The source holds these as a separate data set.
The target of assay [4] is Kir4.1 channel (human) (UniProt P78508). This is another data set of the same source.

Where two headings read alike, the source gives them in different places.

Chain of UniProt P48048 (P48048 whole entry): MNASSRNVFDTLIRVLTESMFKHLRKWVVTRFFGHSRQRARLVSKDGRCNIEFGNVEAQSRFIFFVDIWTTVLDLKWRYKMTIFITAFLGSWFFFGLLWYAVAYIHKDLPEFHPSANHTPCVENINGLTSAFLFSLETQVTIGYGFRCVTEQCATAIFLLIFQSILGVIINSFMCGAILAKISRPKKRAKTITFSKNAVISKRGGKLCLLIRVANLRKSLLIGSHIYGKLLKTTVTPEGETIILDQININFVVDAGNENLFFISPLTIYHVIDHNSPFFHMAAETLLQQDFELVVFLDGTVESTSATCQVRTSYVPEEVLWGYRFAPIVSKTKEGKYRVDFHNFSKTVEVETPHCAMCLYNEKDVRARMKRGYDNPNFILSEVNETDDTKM
Chain of UniProt P78508 (P78508 whole entry): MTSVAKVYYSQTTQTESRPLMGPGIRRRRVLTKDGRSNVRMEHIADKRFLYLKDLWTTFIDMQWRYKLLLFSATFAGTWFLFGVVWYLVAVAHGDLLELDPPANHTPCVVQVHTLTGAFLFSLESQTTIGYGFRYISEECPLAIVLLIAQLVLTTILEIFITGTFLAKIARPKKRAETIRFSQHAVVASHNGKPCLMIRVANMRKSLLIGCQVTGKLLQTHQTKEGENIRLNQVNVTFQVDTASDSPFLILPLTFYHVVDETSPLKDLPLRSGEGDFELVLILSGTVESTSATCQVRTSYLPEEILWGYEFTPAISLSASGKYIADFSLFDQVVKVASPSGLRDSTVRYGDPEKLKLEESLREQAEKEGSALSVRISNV

The substance native SsTx-4 (peptide) showed an IC50 of inhibition of Kir1.1 currents at −40 mV, whole-cell patch clamp, HEK293T with Kir1.1 channel (human) [1] of 210 nM. For the same substance, the IC50 of inhibition of Kir4.1 currents at −40 mV, whole-cell patch clamp, HEK293T with Kir4.1 channel (human) [2] came out at 6200 nM.

Substance recombinant SsTx-4 (peptide) returned an IC50 of inhibition of Kir1.1 currents at −40 mV, whole-cell patch clamp, HEK293T with Kir1.1 channel (human) [3] of 60.4 nM. In the assay with Kir4.1 channel (human) [4], the IC50 of inhibition of Kir4.1 currents at −40 mV, whole-cell patch clamp, HEK293T was 5600 nM.
